± gives the uncertainty stated by the source.
B1: Storkhead-box protein 2, residues 64 to 141; numbered along this chain, Q9P2F5 (parent)
chain: SPISQSQFIPLGEILCLAISAMNSARKPVTQEALMEHLTTCFPGVPTPSQEILRHTLNTLVRERKIYPTPDGYFIVTP

Variants of: B1
Assay: abundance fitness (aPCA) (normalised: wild type 0, dead -1); higher = more abundant; growth selection in yeast, the domain comes from the species named
Details: Homo sapiens

Variant | abundance fitness
E13W | -0.331 ± 0.068
E13G | -0.009 ± 0.042
P43A | -0.137 ± 0.056
P43S | -0.023 ± 0.048
P43M | -0.21 ± 0.071
T30V | -0.033 ± 0.042
T30G | -0.116 ± 0.035
T30S | 0.002 ± 0.038
T30C | -0.026 ± 0.058
T30A | -0.166 ± 0.037
T30W | -0.043 ± 0.047
T30K | -0.089 ± 0.094
G72P | -0.614 ± 0.059
G72K | -0.272 ± 0.14
G72A | -0.304 ± 0.049
G72C | -0.383 ± 0.077
G72M | -0.209 ± 0.081
L57A | -0.576 ± 0.058
L57I | -0.04 ± 0.11
L57M | -0.066 ± 0.069
L57H | -1.1 ± 0.21
L57K | -0.953 ± 0.28
L57R | -1.11 ± 0.12
L11C | -0.62 ± 0.24

Variant | abundance fitness
L11Q | -0.32 ± 0.095
P78H | -0.191 ± 0.15
P78T | -0.191 ± 0.085
T69E | -0.095 ± 0.041
S6H | -0.334 ± 0.26
S6R | -0.062 ± 0.034
S6T | -0.079 ± 0.058
S6D | 0.027 ± 0.069
T47N | -0.151 ± 0.1
T47L | -0.073 ± 0.032
T47V | 0.071 ± 0.031
T47G | -0.197 ± 0.026
T47P | -0.191 ± 0.049
T47S | -0.092 ± 0.041
E51Y | -0.161 ± 0.1
E51S | -0.039 ± 0.056
L38R | -0.894 ± 0.091
L38D | -0.915 ± 0.26
L38H | -0.388 ± 0.21
L38G | -0.787 ± 0.065
L38F | 0.014 ± 0.093
L38A | -0.386 ± 0.07
R62T | 0.053 ± 0.051
R62W | -0.081 ± 0.049

Variant | abundance fitness
K27I | -0.072 ± 0.091
K27G | -0.132 ± 0.03
Q50H | -0.022 ± 0.1
Q50Y | 0.174 ± 0.19
Q50A | -0.011 ± 0.053
Q50S | -0.034 ± 0.069
Y73L | -0.029 ± 0.042
Y73I | -0.261 ± 0.16
P10A | -0.027 ± 0.051
P10C | -0.136 ± 0.12
P10M | 0.048 ± 0.17
P10R | 0.089 ± 0.04
P10L | 0.085 ± 0.047
R26F | -0.089 ± 0.049
R26P | -0.195 ± 0.059
R26W | -0.134 ± 0.072
Y67M | 0.102 ± 0.061
Y67L | -0.029 ± 0.042
Y67S | 0.001 ± 0.043
M22C | -0.114 ± 0.08
M22W | -0.336 ± 0.05
M22R | -0.205 ± 0.043
M22D | -0.515 ± 0.29
M22Q | -0.226 ± 0.066

Variant | abundance fitness
H37E | -0.104 ± 0.061
H37R | -0.144 ± 0.039
H37F | -0.285 ± 0.11
H37W | -0.27 ± 0.049
F8H | 0.015 ± 0.13
F8Q | -0.196 ± 0.075
F8N | -0.021 ± 0.16
F8T | -0.08 ± 0.096
F8M | -0.102 ± 0.079
F8P | -0.081 ± 0.08
F8C | -0.104 ± 0.071
S4A | -0.098 ± 0.039
S4C | -0.013 ± 0.068
C16R | -0.061 ± 0.051
C16P | -0.124 ± 0.098
C16L | -0.019 ± 0.041
C16K | -0.155 ± 0.12
E63G | -0.054 ± 0.035
Q31I | -0.074 ± 0.091
Q31P | 0.018 ± 0.036
Q31G | -0.064 ± 0.029
Q31K | -0.141 ± 0.067
Q31C | 0.056 ± 0.062
Q31Y | -0.051 ± 0.075

Variant | abundance fitness
Q31R | -0.061 ± 0.03
Q31E | 0.01 ± 0.043
Q31L | -0.065 ± 0.033
A25N | -0.068 ± 0.14
A25P | -0.368 ± 0.061
A25L | -0.026 ± 0.038
A25F | -0.08 ± 0.058
A25R | -0.066 ± 0.045
I19Y | -1.26 ± 0.33
I19Q | -1.15 ± 0.21
I19C | -0.21 ± 0.067
I19S | -0.823 ± 0.062
I19L | -0.23 ± 0.047
I19V | -0.154 ± 0.051
V29M | -0.278 ± 0.077
V29G | -0.417 ± 0.033
V29C | 0.02 ± 0.052
V29Q | -0.386 ± 0.099
L15R | -0.977 ± 0.079
L15Q | -1.03 ± 0.15
L15H | -0.796 ± 0.31
L15P | -0.983 ± 0.098
L15S | -0.235 ± 0.042
I52G | -0.083 ± 0.036

Variant | abundance fitness
I52K | -0.029 ± 0.072
I52F | 0.011 ± 0.088
I52H | 0.011 ± 0.092
I52C | -0.038 ± 0.094
T59N | -0.087 ± 0.056
T59K | -0.047 ± 0.077
T59W | 0.062 ± 0.048
T59P | -0.921 ± 0.1
T59S | 0.104 ± 0.043
P46W | -0.174 ± 0.044
P46F | -0.408 ± 0.08
P46T | -0.03 ± 0.056
P46L | -0.128 ± 0.035
P46K | -0.243 ± 0.1
P46H | -0.14 ± 0.072
N58W | -0.093 ± 0.054
N58R | -0.016 ± 0.036
N58F | -0.172 ± 0.068
P2M | 0.013 ± 0.065
P2G | -0.095 ± 0.042
P2L | 0.046 ± 0.047
P2W | -0.102 ± 0.07
P2Y | 0.107 ± 0.1
P2C | -0.15 ± 0.14

Variant | abundance fitness
V45W | 0.028 ± 0.042
V45P | -0.168 ± 0.064
V45I | 0.026 ± 0.08
S1P | -0.469 ± 0.15
S1G | -0.263 ± 0.054
S1T | -0.486 ± 0.14
S1D | -0.027 ± 0.19
I3Q | -0.12 ± 0.048
I3Y | -0.158 ± 0.088
I3P | -0.106 ± 0.047
I3T | -0.024 ± 0.072
I66Q | -1.01 ± 0.18
I66L | -0.05 ± 0.041
I66W | -0.847 ± 0.079
I66Y | -0.971 ± 0.27
I66H | -1 ± 0.24
I66G | -0.894 ± 0.074
P70Y | -0.061 ± 0.079
P70E | -0.004 ± 0.078
P70W | -0.141 ± 0.047
P70V | 0.011 ± 0.047
P70D | 0.091 ± 0.063
P70N | 0.036 ± 0.15

Source: the Human Domainome abundance scans (Beltran et al. 2025)
